Measured values as given in patent US20250222112A1.

Target: soluble ectodomain from HSV-2 glycoprotein D (amino acids 26-331) containing a 6-histidine tag (herpes simplex virus 2 (HSV-2)) (UniProt Q69467)
Test: ELISA, gD-6H coated at 15 µg/ml, HSV8 in 5-fold dilutions from 10 µg/ml, anti-human IgG-HRP

Chain of UniProt Q69467 (Q69467 26-331, tags left off): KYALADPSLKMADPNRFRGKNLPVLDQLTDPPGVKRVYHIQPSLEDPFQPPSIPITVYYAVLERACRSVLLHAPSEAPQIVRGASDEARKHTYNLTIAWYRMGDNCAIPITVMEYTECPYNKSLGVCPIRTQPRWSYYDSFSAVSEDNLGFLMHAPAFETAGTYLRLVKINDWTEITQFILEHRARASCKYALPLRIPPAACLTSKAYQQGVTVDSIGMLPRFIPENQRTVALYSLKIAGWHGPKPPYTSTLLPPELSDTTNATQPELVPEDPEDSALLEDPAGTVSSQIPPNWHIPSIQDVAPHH

Substance: human IgG1 monoclonal antibody HSV8
- lowest concentration with robust binding: 3 nM
